The results in this text go back to US20230140797A1 (published 2023).

A word on the Kd: it is a measure of binding affinity in units of concentration. Lower therefore signals tighter binding.

Read-outs that look alike come from different tables or passages of the source.

For experiment [1], the target named is T1, human FcγRIIa type R extracellular domain with C-terminal His tag (human, UniProt P12318 34-217).
T1 sequence (looked up): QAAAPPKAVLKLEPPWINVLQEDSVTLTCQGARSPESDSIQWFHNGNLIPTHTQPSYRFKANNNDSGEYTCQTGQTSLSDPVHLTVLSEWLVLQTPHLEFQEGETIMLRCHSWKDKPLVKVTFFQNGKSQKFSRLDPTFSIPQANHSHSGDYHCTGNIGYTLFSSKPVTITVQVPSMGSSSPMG
In words: SPR.

Experiment [2] has as its target human FcγRIIIa type V extracellular domain with C-terminal His tag (human, UniProt P08637 17-208). Put plainly: SPR. Background: SPR reads the build-up and loss of mass on a sensor chip optically.
Target sequence in this assay (P08637 17-208 F176V): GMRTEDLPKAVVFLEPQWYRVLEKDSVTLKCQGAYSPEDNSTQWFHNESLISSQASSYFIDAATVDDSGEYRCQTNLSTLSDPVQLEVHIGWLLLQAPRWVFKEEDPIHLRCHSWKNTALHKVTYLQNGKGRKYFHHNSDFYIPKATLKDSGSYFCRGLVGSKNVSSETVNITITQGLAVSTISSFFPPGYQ
In experiment [3] the target is T2, human FcγRIIa type H extracellular domain with C-terminal His tag (human, UniProt P12318 34-217).
T2 sequence (looked up): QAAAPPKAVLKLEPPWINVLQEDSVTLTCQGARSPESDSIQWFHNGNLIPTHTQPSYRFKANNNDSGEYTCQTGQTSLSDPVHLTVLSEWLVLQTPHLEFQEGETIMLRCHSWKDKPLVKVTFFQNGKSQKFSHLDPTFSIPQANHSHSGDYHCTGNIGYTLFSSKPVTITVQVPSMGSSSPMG
Put plainly: SPR.

Experiment [4] addresses T3, human FcγRIIb extracellular domain with C-terminal His tag (human, UniProt P31994 43-217).
T3 sequence (looked up): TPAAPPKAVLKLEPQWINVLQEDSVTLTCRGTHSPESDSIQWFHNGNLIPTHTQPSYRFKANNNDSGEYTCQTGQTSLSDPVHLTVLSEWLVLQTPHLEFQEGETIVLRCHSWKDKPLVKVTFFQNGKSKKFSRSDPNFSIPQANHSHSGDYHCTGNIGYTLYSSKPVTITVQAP
In words: ratio of SPR KDs.

Experiment [5] deals with T4, human FcγRIIa type R (131Arg) extracellular domain with C-terminal His tag (human, UniProt P12318 34-217).
T4 sequence (looked up): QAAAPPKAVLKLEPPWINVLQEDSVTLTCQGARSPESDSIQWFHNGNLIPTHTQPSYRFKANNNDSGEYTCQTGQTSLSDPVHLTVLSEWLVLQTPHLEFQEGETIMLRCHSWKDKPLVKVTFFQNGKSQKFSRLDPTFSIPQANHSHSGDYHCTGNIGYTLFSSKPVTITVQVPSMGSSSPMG
Put plainly: SPR.

Experiment [6] concerns the target T3, human FcγRIIb extracellular domain with …. Put plainly: ratio of SPR KDs. This is another data set of the same source.
The target of experiment [7] is human FcγRIIIa type V extracellular domain with C-terminal His tag (human, UniProt P08637 17-208). In words: SPR. The source holds these as a separate data set.
Target sequence in this assay (P08637 17-208 F176V): as the sequence (P08637 17-208 F176V) above

B1: IL6R-BP183/IL6R-L (antibody, human IgG1, kappa)
heavy: QVQLQESGPGLVKPSETLSLTCAVSGHSISHDHAWSWVRQPPGEGLEWIGFISYSGITNYNPSLQGRVTISRDNSKNTLYLQMNSLRAEDTAVYYCARSLARTTAMDYWGEGTLVTVSSASTKGPSVFPLAPSSKSTSGGTAALGCLVKDYFPEPVTVSWNSGALTSGVHTFPAVLQSSGLYSLSSVVTVPSSSLGTQTYICNVNHKPSNTKVDKKVEPKSCDKTHTCPPCPAPDYLGGDSVFLFPPKPKDTLMISRTPEVTCVVVDVSHEDGEVKFNWYVDGVEVHNAKTKPREEQYNSTYRVVSVLTVLHQDWLNGKEYKCKVSNAALPKPIEKTISKAKGQPREPQVYTLPPSRDELTKNQVSLTCLVKGFYPSDIAVEWESNGQPENNYKTTPPVLDSDGSFFLYSKLTVDKSRWQQGNVFSCSVMHEALHNHYTQESLSLSP
light: not shown
Regarding B1, in experiment [1], the Kd worked out at 2500 nM.

B2: IL6R-BP186/IL6R-L (antibody, human IgG1, kappa)
heavy: QVQLQESGPGLVKPSETLSLTCAVSGHSISHDHAWSWVRQPPGEGLEWIGFISYSGITNYNPSLQGRVTISRDNSKNTLYLQMNSLRAEDTAVYYCARSLARTTAMDYWGEGTLVTVSSASTKGPSVFPLAPSSKSTSGGTAALGCLVKDYFPEPVTVSWNSGALTSGVHTFPAVLQSSGLYSLSSVVTVPSSSLGTQTYICNVNHKPSNTKVDKKVEPKSCDKTHTCPPCPAPDYLGDDSVFLFPPKPKDTLMISRTPEVTCVVVDVSHEDGEVKFNWYVDGVEVHNAKTKPREEQDNSTYRVVSVLTVLHQDWLNGKEYKCKVSNAALPKPIEKTISKAKGQPREPQVYTLPPSRDELTKNQVSLTCLVKGFYPSDIAVEWESNGQPENNYKTTPPVLDSDGSFFLYSKLTVDKSRWQQGNVFSCSVMHEALHNHYTQESLSLSP
light: not shown
In turn, B2 had a Kd in experiment [1] of 950 nM.

B3: IL6R-BP184/IL6R-L (antibody, human IgG1, kappa)
heavy: QVQLQESGPGLVKPSETLSLTCAVSGHSISHDHAWSWVRQPPGEGLEWIGFISYSGITNYNPSLQGRVTISRDNSKNTLYLQMNSLRAEDTAVYYCARSLARTTAMDYWGEGTLVTVSSASTKGPSVFPLAPSSKSTSGGTAALGCLVKDYFPEPVTVSWNSGALTSGVHTFPAVLQSSGLYSLSSVVTVPSSSLGTQTYICNVNHKPSNTKVDKKVEPKSCDKTHTCPPCPAPDLLGGDSVFLFPPKPKDTLMISRTPEVTCVVVDVSHEDGEVKFNWYVDGVEVHNAKTKPREEQYNSTYRVVSVLTVLHQDWLNGKEYKCKVSNKALPKPIEKTISKAKGQPREPQVYTLPPSRDELTKNQVSLTCLVKGFYPSDIAVEWESNGQPENNYKTTPPVLDSDGSFFLYSKLTVDKSRWQQGNVFSCSVMHEALHNHYTQESLSLSP
light: not shown
For B3, the Kd in experiment [2] stood at 68 nM.

B4: IL6R-BP209/IL6R-L (antibody, human IgG1, kappa)
heavy: QVQLQESGPGLVKPSETLSLTCAVSGHSISHDHAWSWVRQPPGEGLEWIGFISYSGITNYNPSLQGRVTISRDNSKNTLYLQMNSLRAEDTAVYYCARSLARTTAMDYWGEGTLVTVSSASTKGPSVFPLAPSSKSTSGGTAALGCLVKDYFPEPVTVSWNSGALTSGVHTFPAVLQSSGLYSLSSVVTVPSSSLGTQTYICNVNHKPSNTKVDKKVEPKSCDKTHTCPPCPAPELLGDDSVFLFPPKPKDTLMISRTPEVTCVVVDVSDEDGEVKFNWYVDGVEVHNAKTKPREEQYNSTYRVVSVLTVLHQDWLNGKEYKCKVSNAALPRPIEKTISKAKGQPREPQVYTLPPSRDELTKNQVSLTCLVKGFYPSDIAVEWESNGQPENNYKTTPPVLDSDGSFFLYSKLTVDKSRWQQGNVFSCSVMHEALHNHYTQESLSLSP
light: not shown
Turning to B4, binding in experiment [3] was characterised by a dissociation constant (Kd) of 1000 nM.

B5: IL6R-BP483/IL6R-L (antibody, human IgG1, kappa)
heavy: QVQLQESGPGLVKPSETLSLTCAVSGHSISHDHAWSWVRQPPGEGLEWIGFISYSGITNYNPSLQGRVTISRDNSKNTLYLQMNSLRAEDTAVYYCARSLARTTAMDYWGEGTLVTVSSASTKGPSVFPLAPSSKSTSGGTAALGCLVKDYFPEPVTVSWNSGALTSGVHTFPAVLQSSGLYSLSSVVTVPSSSLGTQTYICNVNHKPSNTKVDKKVEPKSCDKTHTCPPCPAPDLLGDDSVFLFPPKPKDTLMISRTPEVTCVVVDLAEEDGEVKFNWYVDGVEVHNAKTKPREEQYNSTYRVVSVLTVLHQDWLNGKEYKCKVSNKALPAPIEKTISKAKGQPREPQVYTLPPSRDELTKNQVSLTCLVKGFYPSDIAVEWESNGQPENNYKTTPPVLDSDGSFFLYSKLTVDKSRWQQGNVFSCSVMHEALHNHYTQESLSLSP
light: not shown
Turning to B5, in experiment [4], the “KD (IIaR)/KD (IIb)” value came out at 16. For the same molecule, the Kd in experiment [5] was 13 nM. In experiment [6], the “KD (IIaH)/KD (IIb)” value is 230.

B6: IL6R-BP480/IL6R-L (antibody, human IgG1, kappa)
heavy: QVQLQESGPGLVKPSETLSLTCAVSGHSISHDHAWSWVRQPPGEGLEWIGFISYSGITNYNPSLQGRVTISRDNSKNTLYLQMNSLRAEDTAVYYCARSLARTTAMDYWGEGTLVTVSSASTKGPSVFPLAPSSKSTSGGTAALGCLVKDYFPEPVTVSWNSGALTSGVHTFPAVLQSSGLYSLSSVVTVPSSSLGTQTYICNVNHKPSNTKVDKKVEPKSCDKTHTCPPCPAPDLLGDDSVFLFPPKPKDTLMISRTPEVTCVVVDLSEDDGEVKFNWYVDGVEVHNAKTKPREEQYNSTYRVVSVLTVLHQDWLNGKEYKCKVSNKALPAPIEKTISKAKGQPREPQVYTLPPSRDELTKNQVSLTCLVKGFYPSDIAVEWESNGQPENNYKTTPPVLDSDGSFFLYSKLTVDKSRWQQGNVFSCSVMHEALHNHYTQESLSLSP
light: not shown
In turn, B6 registered a Kd in experiment [7] of 40000 nM.

B7: IL6R-BP204/IL6R-L (antibody, human IgG1, kappa)
heavy: QVQLQESGPGLVKPSETLSLTCAVSGHSISHDHAWSWVRQPPGEGLEWIGFISYSGITNYNPSLQGRVTISRDNSKNTLYLQMNSLRAEDTAVYYCARSLARTTAMDYWGEGTLVTVSSASTKGPSVFPLAPSSKSTSGGTAALGCLVKDYFPEPVTVSWNSGALTSGVHTFPAVLQSSGLYSLSSVVTVPSSSLGTQTYICNVNHKPSNTKVDKKVEPKSCDKTHTCPPCPAPDLLGGDSVFLFPPKPKDTLMISRTPEVTCVVVDVSHEDGEVKFNWYVDGVEVHNAKTKPREEQYNSTYRVVSVLTVLHQDWLNGKEYKCKVSNAALPRPIEKTISKAKGQPREPQVYTLPPSRDELTKNQVSLTCLVKGFYPSDIAVEWESNGQPENNYKTTPPVLDSDGSFFLYSKLTVDKSRWQQGNVFSCSVMHEALHNHYTQESLSLSP
light: not shown
Molecule B7 returned a Kd in experiment [3] of 2100 nM.

B8: IL6R-BP213/IL6R-L (antibody, human IgG1, kappa)
heavy: QVQLQESGPGLVKPSETLSLTCAVSGHSISHDHAWSWVRQPPGEGLEWIGFISYSGITNYNPSLQGRVTISRDNSKNTLYLQMNSLRAEDTAVYYCARSLARTTAMDYWGEGTLVTVSSASTKGPSVFPLAPSSKSTSGGTAALGCLVKDYFPEPVTVSWNSGALTSGVHTFPAVLQSSGLYSLSSVVTVPSSSLGTQTYICNVNHKPSNTKVDKKVEPKSCDKTHTCPPCPAPDLLGGDSVFLFPPKPKDTLMISRTPEVTCVVVDVSDEDGEVKFNWYVDGVEVHNAKTKPREEQYNSTYRVVSVLTVLHQDWLNGKEYKCKVSNKALPRPIEKTISKAKGQPREPQVYTLPPSRDELTKNQVSLTCLVKGFYPSDIAVEWESNGQPENNYKTTPPVLDSDGSFFLYSKLTVDKSRWQQGNVFSCSVMHEALHNHYTQESLSLSP
light: not shown
With B8, the Kd in experiment [2] was determined as 65000 nM.
